Measurements: article PMC11891782

Legend:
Test in all cases: ELISA; dose-response: 1 μg component adsorbed; rLIC_13355 serially diluted 1:1 from 1 μg, 1 h at 37 °C; anti-His mAb detection; KD by non-linear regression, one site specific binding
[1] = biological target: Native plasminogen, purified
[2] = biological target: Laminin-1 from the basement membrane of Engelbreth-Holm-Swarm mouse sarcoma (mouse) (UniProt P19137)
Plasma fibronectin = biological target: Plasma fibronectin

| Substance | Kd [1] [nM] | Kd [2] [nM] | Kd (Plasma fibronectin) [nM] |
| --- | --- | --- | --- |
| rLIC_13355, recombinant putative lipoprotein encoded by the gene LIC_13355 of Leptospira interrogans (natural protein) | 11.8 | 18.5 |  |
| rLIC_13355, recombinant putative lipoprotein encoded by the gene LIC_13355 of Leptospira interrogans (natural protein; other documents disagree on this pair) |  |  | 3490 |
